In paper PMC3571920 one finds stoichiometry N data, which are given here for one substance.

The target of this test is HIV-1 integrase tagged at the C-terminus with the HA epitope (IN-HA) (HIV-1 (Lai molecular clone)). Briefly: cross-linking; gel filtration fractions 30-32 (IN complex III) of extracts of infected LEDGF/p75 knock-down TL34 cells, 2 h p.i.; 0.25 to 2 mM EGS, 30 min at room temperature, 20 mM HEPES-KOH pH 7.2, 0.3 M KCl; SDS-PAGE and anti-HA-HRP blot.

“HIV-1 integrase tagged at the C-terminus with the HA epitope (IN-HA) (enzyme)” came in with a stoichiometry N of 4.
